The values that follow come from paper PMC11573620 (Molecular Therapy, 2024).

This assay deals with T1, human CD155 extracellular domain fused to mouse Fc (human, UniProt P15151 21-343).
T1 sequence (looked up): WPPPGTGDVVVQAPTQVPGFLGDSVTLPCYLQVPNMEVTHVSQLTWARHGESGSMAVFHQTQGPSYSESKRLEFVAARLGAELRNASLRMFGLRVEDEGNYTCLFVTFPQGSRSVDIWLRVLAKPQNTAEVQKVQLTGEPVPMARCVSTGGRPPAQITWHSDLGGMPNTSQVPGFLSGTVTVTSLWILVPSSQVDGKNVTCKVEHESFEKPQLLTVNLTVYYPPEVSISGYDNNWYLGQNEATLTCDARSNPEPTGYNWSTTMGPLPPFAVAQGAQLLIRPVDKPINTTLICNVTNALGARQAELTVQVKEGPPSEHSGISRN
Put plainly: ELISA. (In an ELISA, binding on a coated surface is turned into a signal by an enzyme label.)

B1: human TIGIT extracellular domain, biotinylated (domain or fragment, UniProt Q495A1 22-141, looked up)
chain: MMTGTIETTGNISAEKGGSIILQCHLSSTTAQVTQVNWEQQDQLLAICNADLGWHISPSFKDRVAPGPGLGLTLQSLTVNDTGEYFCIYHTYPDGTYTGRIFLEVLESSVAEHGARFQIP
modifications: biotin
For B1, the binding result is listed as “binds”.
